The data set deals with the molecule itself. Kind of data set: dynamic light scattering.

B1: D48V-GLTP (human glycolipid transfer protein, D48V mutant) (natural protein, UniProt Q9NZD2 1-209, looked up)
chain: MALLAEHLLKPLPADKQIETGPFLEAVSHLPPFFDCLGSPVFTPIKAVISGNITKIKAVYDTNPAKFRTLQNILEVEKEMYGAEWPKVGATLALMWLKRGLRFIQVFLQSICDGERDENHPNLIRVNATKAYEMALKKYHGWIVQKIFQAALYAAPYKSDFLKALSKGQNVTEEECLEKIRLFLVNYTATIDVIYEMYTQMNAELNYKV
Take B1: the “stoichiometry N” value worked out at 2.

The record behind these values is paper PMC3220887 (Structure (London, England : 1993), 2011).
